Patent US20180030151A1 (MOGAM INSTITUTE FOR BIOMEDICAL RESEARCH, published 2018)
Like-named read-outs stand apart in the source and are kept apart here.

Tests used:
Assay in all cases: cell-based or functional assay
[1] = target: T1, recombinant human TFPI (tissue factor pathway inhibitor) (human, UniProt P10646 29-304)
[2] = target: T1, recombinant human TFPI (tissue factor …); remark: listed apart in the source
[3] = target: T1, recombinant human TFPI (tissue factor …); remark: listed apart in the source
[4] = target: T1, recombinant human TFPI (tissue factor …); remark: listed apart in the source
[5] = target: T1, recombinant human TFPI (tissue factor …); remark: listed apart in the source
[6] = target: T1, recombinant human TFPI (tissue factor …); remark: listed apart in the source
[7] = target: T1, recombinant human TFPI (tissue factor …); remark: listed apart in the source
[8] = target: T1, recombinant human TFPI (tissue factor …); remark: listed apart in the source
[9] = target: T1, recombinant human TFPI (tissue factor …); remark: listed apart in the source
[10] = target: T1, recombinant human TFPI (tissue factor …); remark: listed apart in the source
[11] = target: T1, recombinant human TFPI (tissue factor …); remark: listed apart in the source
[12] = target: T1, recombinant human TFPI (tissue factor …); remark: listed apart in the source
[13] = target: T1, recombinant human TFPI (tissue factor …); remark: listed apart in the source
[14] = target: T1, recombinant human TFPI (tissue factor …); remark: listed apart in the source
[15] = target: T1, recombinant human TFPI (tissue factor …); remark: listed apart in the source
[16] = target: T1, recombinant human TFPI (tissue factor …); remark: listed apart in the source

B1: clone T417 (antibody, V domains shown)
VH: EVHLVESGGDLVKPGGSLKLSCAASGFTFSSYAMSWVRQTPDKRLEWVATITTGGSYTYYPDSVKGRFTISRDNAKNTLYLQMSSLKSEDTAMYYCARQDGNFLMDYWGQGTTVTVSS
VL: not shown
notes: also called T417 chimeric antibody
- FXa assay % of FXa alone, 2.5 nM Ab, 10 nM TFPI [1]: 7.7%
- FXa assay % of FXa alone, 5 nM Ab, 10 nM TFPI [1]: 29.9%
- FXa assay % of FXa alone, 10 nM Ab, 10 nM TFPI [1]: 56.8%
- FXa assay % of FXa alone, 20 nM Ab, 10 nM TFPI [1]: 75.6%
- FXa assay OD, 2.5 nM Ab, 10 nM TFPI [1]: 0.0625
- FXa assay OD, 5 nM Ab, 10 nM TFPI [1]: 0.242
- FXa assay OD, 10 nM Ab, 10 nM TFPI [1]: 0.461
- FXa assay OD, 20 nM Ab, 10 nM TFPI [1]: 0.614
- FXa assay % of FXa alone, 2.5 nM Ab, 10 nM TFPI [2]: 17.6%
- FXa assay % of FXa alone, 5 nM Ab, 10 nM TFPI [2]: 75.9%
- FXa assay % of FXa alone, 10 nM Ab, 10 nM TFPI [2]: 85.2%
- FXa assay % of FXa alone, 20 nM Ab, 10 nM TFPI [2]: 93.3%
- FXa assay OD, 2.5 nM Ab, 10 nM TFPI [2]: 0.127
- FXa assay OD, 5 nM Ab, 10 nM TFPI [2]: 0.546
- FXa assay OD, 10 nM Ab, 10 nM TFPI [2]: 0.613
- FXa assay OD, 20 nM Ab, 10 nM TFPI [2]: 0.67
- FXa assay % of FXa alone, 2.5 nM Ab, 10 nM TFPI [3]: 6.9%
- FXa assay % of FXa alone, 5 nM Ab, 10 nM TFPI [3]: 20%
- FXa assay % of FXa alone, 10 nM Ab, 10 nM TFPI [3]: 45.4%
- FXa assay % of FXa alone, 20 nM Ab, 10 nM TFPI [3]: 72.9%
- FXa assay OD, 2.5 nM Ab, 10 nM TFPI [3]: 0.057
- FXa assay OD, 5 nM Ab, 10 nM TFPI [3]: 0.165
- FXa assay OD, 10 nM Ab, 10 nM TFPI [3]: 0.375
- FXa assay OD, 20 nM Ab, 10 nM TFPI [3]: 0.603
- A405, TF/FVIIa/FX complex assay, Ab 1.56 nM [4]: 0.16
- A405, TF/FVIIa/FX complex assay, Ab 3.13 nM [4]: 0.158
- A405, TF/FVIIa/FX complex assay, Ab 6.25 nM [4]: 0.183
- A405, TF/FVIIa/FX complex assay, Ab 12.5 nM [4]: 0.253
- A405, TF/FVIIa/FX complex assay, Ab 25 nM [4]: 0.894
- A405, TF/FVIIa/FX complex assay, Ab 50 nM [4]: 0.938
- A405, TF/FVIIa/FX complex assay, Ab 100 nM [4]: 0.931
- % of Normalized, TF/FVIIa/FX complex assay, Ab 1.56 nM [5]: 15.2%
- % of Normalized, TF/FVIIa/FX complex assay, Ab 3.13 nM [5]: 16.8%
- % of Normalized, TF/FVIIa/FX complex assay, Ab 6.25 nM [5]: 19.5%
- % of Normalized, TF/FVIIa/FX complex assay, Ab 12.5 nM [5]: 26.3%
- % of Normalized, TF/FVIIa/FX complex assay, Ab 25 nM [5]: 92.2%
- % of Normalized, TF/FVIIa/FX complex assay, Ab 50 nM [5]: 95.1%
- % of Normalized, TF/FVIIa/FX complex assay, Ab 100 nM [5]: 99%
- % of Normalized, TF/FVIIa/FX complex assay, Ab 1.56 nM [6]: 5.2%
- % of Normalized, TF/FVIIa/FX complex assay, Ab 3.13 nM [6]: 5.5%
- % of Normalized, TF/FVIIa/FX complex assay, Ab 6.25 nM [6]: 5.8%
- % of Normalized, TF/FVIIa/FX complex assay, Ab 12.5 nM [6]: 8.7%
- % of Normalized, TF/FVIIa/FX complex assay, Ab 25 nM [6]: 32.1%
- % of Normalized, TF/FVIIa/FX complex assay, Ab 50 nM [6]: 70.7%
- % of Normalized, TF/FVIIa/FX complex assay, Ab 100 nM [6]: 95.5%
- TF/FVIIa/FXa assay % of 0 nM TFPI, 12.5 nM Ab, 50 nM TFPI [7]: 21.2%
- TF/FVIIa/FXa assay % of 0 nM TFPI, 50 nM Ab, 50 nM TFPI [7]: 115%
- TF/FVIIa/FXa assay % of 0 nM TFPI, 100 nM Ab, 50 nM TFPI [7]: 113%
- TF/FVIIa/FXa assay OD, 12.5 nM Ab, 50 nM TFPI [7]: 0.17 OD
- TF/FVIIa/FXa assay OD, 25 nM Ab, 50 nM TFPI [7]: 0.696 OD
- TF/FVIIa/FXa assay OD, 50 nM Ab, 50 nM TFPI [7]: 0.924 OD
- TF/FVIIa/FXa assay OD, 100 nM Ab, 50 nM TFPI [7]: 0.907 OD
- FXa assay % of FXa alone, 2.5 nM Ab, 10 nM TFPI [8]: 6.9%
- FXa assay % of FXa alone, 5 nM Ab, 10 nM TFPI [8]: 18.8%
- FXa assay % of FXa alone, 10 nM Ab, 10 nM TFPI [8]: 55.2%
- FXa assay % of FXa alone, 20 nM Ab, 10 nM TFPI [8]: 78%
- FXa assay OD, 2.5 nM Ab, 10 nM TFPI [8]: 0.0335
- FXa assay OD, 5 nM Ab, 10 nM TFPI [8]: 0.091
- FXa assay OD, 10 nM Ab, 10 nM TFPI [8]: 0.267
- FXa assay OD, 20 nM Ab, 10 nM TFPI [8]: 0.378
- FXa assay % of FXa alone, 2.5 nM Ab, 10 nM TFPI [9]: 5.4%
- FXa assay % of FXa alone, 5 nM Ab, 10 nM TFPI [9]: 8%
- FXa assay % of FXa alone, 10 nM Ab, 10 nM TFPI [9]: 30.7%
- FXa assay % of FXa alone, 20 nM Ab, 10 nM TFPI [9]: 58.5%
- FXa assay OD, 2.5 nM Ab, 10 nM TFPI [9]: 0.041
- FXa assay OD, 5 nM Ab, 10 nM TFPI [9]: 0.061
- FXa assay OD, 10 nM Ab, 10 nM TFPI [9]: 0.234
- FXa assay OD, 20 nM Ab, 10 nM TFPI [9]: 0.446
- % of Normalized, TF/FVIIa/FX complex assay (FX 5 nM), Ab 1.56 nM [10]: 5.5%
- % of Normalized, TF/FVIIa/FX complex assay (FX 5 nM), Ab 3.13 nM [10]: 6%
- % of Normalized, TF/FVIIa/FX complex assay (FX 5 nM), Ab 6.25 nM [10]: 6.2%
- % of Normalized, TF/FVIIa/FX complex assay (FX 5 nM), Ab 12.5 nM [10]: 8.9%
- % of Normalized, TF/FVIIa/FX complex assay (FX 5 nM), Ab 25 nM [10]: 19%
- % of Normalized, TF/FVIIa/FX complex assay (FX 5 nM), Ab 50 nM [10]: 62.9%
- % of Normalized, TF/FVIIa/FX complex assay (FX 5 nM), Ab 100 nM [10]: 92%
- TFPI inhibitory activity, FXa activity assay, Ab 10 nM [11]: 78.4%
- effect of inhibiting TFPI, FXa activity assay, Ab 10 nM [11]: 72%
- A405, TF/FVIIa/FX complex assay, Ab 1.56 nM [12]: 0.134
- A405, TF/FVIIa/FX complex assay, Ab 3.13 nM [12]: 0.147
- A405, TF/FVIIa/FX complex assay, Ab 6.25 nM [12]: 0.179
- A405, TF/FVIIa/FX complex assay, Ab 12.5 nM [12]: 0.242
- A405, TF/FVIIa/FX complex assay, Ab 25 nM [12]: 0.873
- A405, TF/FVIIa/FX complex assay, Ab 50 nM [12]: 0.945
- A405, TF/FVIIa/FX complex assay, Ab 100 nM [12]: 0.949
- A405, TF/FVIIa/FX complex assay (FX 5 nM), Ab 1.56 nM [13]: 0.045
- A405, TF/FVIIa/FX complex assay (FX 5 nM), Ab 3.13 nM [13]: 0.049
- A405, TF/FVIIa/FX complex assay (FX 5 nM), Ab 6.25 nM [13]: 0.05
- A405, TF/FVIIa/FX complex assay (FX 5 nM), Ab 12.5 nM [13]: 0.072
- A405, TF/FVIIa/FX complex assay (FX 5 nM), Ab 25 nM [13]: 0.154
- A405, TF/FVIIa/FX complex assay (FX 5 nM), Ab 50 nM [13]: 0.509
- A405, TF/FVIIa/FX complex assay (FX 5 nM), Ab 100 nM [13]: 0.745
- FXa assay % of FXa alone, 2.5 nM Ab, 10 nM TFPI [14]: 7.2%
- FXa assay % of FXa alone, 5 nM Ab, 10 nM TFPI [14]: 10.2%
- FXa assay % of FXa alone, 10 nM Ab, 10 nM TFPI [14]: 43.9%
- FXa assay % of FXa alone, 20 nM Ab, 10 nM TFPI [14]: 66.9%
- FXa assay OD, 2.5 nM Ab, 10 nM TFPI [14]: 0.0855
- FXa assay OD, 5 nM Ab, 10 nM TFPI [14]: 0.122
- FXa assay OD, 10 nM Ab, 10 nM TFPI [14]: 0.522
- FXa assay OD, 20 nM Ab, 10 nM TFPI [14]: 0.797
- A405, TF/FVIIa/FX complex assay, Ab 1.56 nM [15]: 0.145
- A405, TF/FVIIa/FX complex assay, Ab 3.13 nM [15]: 0.16
- A405, TF/FVIIa/FX complex assay, Ab 6.25 nM [15]: 0.186
- A405, TF/FVIIa/FX complex assay, Ab 12.5 nM [15]: 0.251
- A405, TF/FVIIa/FX complex assay, Ab 25 nM [15]: 0.88
- A405, TF/FVIIa/FX complex assay, Ab 50 nM [15]: 0.908
- A405, TF/FVIIa/FX complex assay, Ab 100 nM [15]: 0.945
- % of Normalized, TF/FVIIa/FX complex assay, Ab 1.56 nM [16]: 14.5%
- % of Normalized, TF/FVIIa/FX complex assay, Ab 3.13 nM [16]: 16%
- % of Normalized, TF/FVIIa/FX complex assay, Ab 6.25 nM [16]: 19.4%
- % of Normalized, TF/FVIIa/FX complex assay, Ab 12.5 nM [16]: 26.3%
- % of Normalized, TF/FVIIa/FX complex assay, Ab 25 nM [16]: 95%
- % of Normalized, TF/FVIIa/FX complex assay, Ab 50 nM [16]: 103%
- % of Normalized, TF/FVIIa/FX complex assay, Ab 100 nM [16]: 103%
